Measurements from EP4803139A2 (Amgen Inc., dated 2026).

Molecular target: T1, PCSK2 (R&D Systems) (UniProt P16519 26-638, limits assumed)
T1 sequence (looked up): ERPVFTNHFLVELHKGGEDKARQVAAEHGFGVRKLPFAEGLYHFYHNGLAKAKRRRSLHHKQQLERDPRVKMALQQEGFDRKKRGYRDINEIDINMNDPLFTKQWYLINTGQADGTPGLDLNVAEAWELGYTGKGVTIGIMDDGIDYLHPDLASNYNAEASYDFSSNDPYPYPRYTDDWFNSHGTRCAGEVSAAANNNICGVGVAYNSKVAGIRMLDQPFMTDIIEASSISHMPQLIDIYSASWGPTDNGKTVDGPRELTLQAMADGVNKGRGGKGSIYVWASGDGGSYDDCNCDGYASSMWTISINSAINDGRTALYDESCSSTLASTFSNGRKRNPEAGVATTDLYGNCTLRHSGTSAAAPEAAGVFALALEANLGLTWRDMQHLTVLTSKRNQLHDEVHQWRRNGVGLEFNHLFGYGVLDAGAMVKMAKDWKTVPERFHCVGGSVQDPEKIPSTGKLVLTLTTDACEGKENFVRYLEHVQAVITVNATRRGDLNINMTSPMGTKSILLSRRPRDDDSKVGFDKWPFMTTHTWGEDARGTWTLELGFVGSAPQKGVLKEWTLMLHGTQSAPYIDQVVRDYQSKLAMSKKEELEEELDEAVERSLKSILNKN
Test: competition ELISA: 0.4 µg/mL 11F1 pre-incubated with the convertase in solution, then binding to plate-captured biotinylated PCSK9

binding result: no binding (tested: 0 to 20 µg/mL)
B1: 11F1, anti-PCSK9 antibody (antibody, V domains shown)
VH: EVQLVESGGGLVQPGGSLRLSCAASGFTFSNYWMSWVRQAPGKGLEWVASIKQDGSEKYYVDSVKGRFAISRDNAKNSLFLQMNSLRAEDTAVYYCARDLVLMVYDIDYYYYGMDVWGQGTTVTVSS
VL: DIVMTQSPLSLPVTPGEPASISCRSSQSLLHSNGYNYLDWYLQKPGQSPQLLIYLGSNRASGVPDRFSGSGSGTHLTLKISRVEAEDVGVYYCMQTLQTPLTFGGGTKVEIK
